From article PMC3702631 (Structure (London, England : 1993), 2013)

Biological target: the molecule itself
Assay: SEC

B1: mouse TBK1 C-terminal truncation, residues 1-657 (GST tag cleaved) (domain or fragment, UniProt Q9WUN2 1-657, looked up)
chain: MQSTSNHLWLLSDILGQGATANVFRGRHKKTGDLYAVKVFNNISFLRPVDVQMREFEVLKKLNHKNIVKLFAIEEETTTRHKVLIMEFCPCGSLYTVLEEPSNAYGLPESEFLIVLRDVVGGMNHLRENGIVHRDIKPGNIMRVIGEDGQSVYKLTDFGAARELEDDEQFVSLYGTEEYLHPDMYERAVLRKDHQKKYGATVDLWSVGVTFYHAATGSLPFRPFEGPRRNKEVMYKIITGKPSGAISGVQKAENGPIDWSGDMPLSCSLSQGLQALLTPVLANILEADQEKCWGFDQFFAETSDVLHRMVIHVFSLQHMTAHKIYIHSYNTAAVFHELVYKQTKIVSSNQELIYEGRRLVLELGRLAQHFPKTTEENPIFVTSREQLNTVGLRYEKISLPKIHPRYDLDGDASMAKAVTGVVCYACRTASTLLLYQELMRKGVRWLVELVKDDYNETVHKKTEVVITLDFCIRNIEKTVKVYEKLMKVNLEAAELGEISDIHTKLLRLSSSQGTIESSLQDISSRLSPGGLLADTWAHQEGTHPRDRNVEKLQVLLNCITEIYYQFKKDKAERRLAYNEEQIHKFDKQKLYYHATKAMSHFSEECVRKYEAFKDKSEEWMRKMLHLRKQLLSLTNQCFDIEEEVSKYQDYTNELQET
  stoichiometry N: 2

B2: full-length mouse TBK1 (GST tag cleaved) (enzyme, UniProt Q9WUN2 1-729, looked up)
chain: MQSTSNHLWLLSDILGQGATANVFRGRHKKTGDLYAVKVFNNISFLRPVDVQMREFEVLKKLNHKNIVKLFAIEEETTTRHKVLIMEFCPCGSLYTVLEEPSNAYGLPESEFLIVLRDVVGGMNHLRENGIVHRDIKPGNIMRVIGEDGQSVYKLTDFGAARELEDDEQFVSLYGTEEYLHPDMYERAVLRKDHQKKYGATVDLWSVGVTFYHAATGSLPFRPFEGPRRNKEVMYKIITGKPSGAISGVQKAENGPIDWSGDMPLSCSLSQGLQALLTPVLANILEADQEKCWGFDQFFAETSDVLHRMVIHVFSLQHMTAHKIYIHSYNTAAVFHELVYKQTKIVSSNQELIYEGRRLVLELGRLAQHFPKTTEENPIFVTSREQLNTVGLRYEKISLPKIHPRYDLDGDASMAKAVTGVVCYACRTASTLLLYQELMRKGVRWLVELVKDDYNETVHKKTEVVITLDFCIRNIEKTVKVYEKLMKVNLEAAELGEISDIHTKLLRLSSSQGTIESSLQDISSRLSPGGLLADTWAHQEGTHPRDRNVEKLQVLLNCITEIYYQFKKDKAERRLAYNEEQIHKFDKQKLYYHATKAMSHFSEECVRKYEAFKDKSEEWMRKMLHLRKQLLSLTNQCFDIEEEVSKYQDYTNELQETLPQKMLAASGGVKHAMAPIYPSSNTLVEMTLGMKKLKEEMEGVVKELAENNHILERFGSLTMDGGLRNVDCL
  stoichiometry N: 2
